Eight molecules from US6835382B2, “Ii peptide therapeutics to enhance antigen presentation” (University of Massachusetts, priority 1996, dated 2004) can be followed below.

Non-standard residues stand in square brackets, D forms with d. Hyp = O=C(O)[C@@H]1C[C@@H](O)CN1

In test [1] the test system is murine E^k MHC class II allele. Kind of test: AE101 series peptide prepulse assay, E^k allele. The test is classed as cell-based. To be noted: Table 35; AE101 series peptide prepulse 64 μM; antigenic peptide 0.4 μM; supernatant dilution 1:2. How it is done: (§1) Table 35: Activities of multiple substitution analogs of AE235, targeting the E^k and E^d allele, in an AE101 series peptide prepulse assay. In this assay the concentration of AE101 series peptides used during the prepulse was 64 μM. The concentrations of antigenic peptides were 0.3 μM for Ed and 0.4 μM for E^k. The supernatant dilutions taken into the HT-2 cell assay was 1:4 for E and 1:2 for E^k. The AE381 peptide is a head-to-tail cyclization: the amino terminal amino group is coupled through an amide linkage to the carboxyl terminal group. The AE 382 peptide is a side-to-tail cyclization: the epsilon amino group of Lys^4 is coupled through an amide linkage to the carboxyl terminal group.
(§2) AE101 series peptide prepulse assays were carried out in the E^d and E^k systems as described for simultaneous competition assays with the following modifications. Fixed APC were first incubated for 6 h at 1×10^6DMEM-5% FCS with 64 μM of each AE101 series peptide or with PBS. The APC were then washed four times with ten volumes of DMEM-5% FCS, and were cocultured with T hybridoma cells and the indicated submaximal doses of antigenic peptides used in the simultaneous competition assays. The baseline T cell response was measured by culturing T hybridoma cells with antigenic peptide and PBS-pretreated APC.

The test system of test [2] is murine E^k MHC class II allele. The test is described as follows: simultaneous assay, E^k allele (CH27 APC, TPc9.1 T hybridoma, THMCC82-103 or PGCC81-104). Format: cell-based. The essentials:
(§3)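 Antigenic peptide, mitomycin C-treated APC, effector compound and allele-restricted T hybridoma cultured together for 24 h. Supernatant then transferred to interleukin-dependent HT-2 cells. T cell activation quantified as [3H]TdR uptake by HT-2 cells.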

In test [3] the target is T1, murine E^d MHC class II allele (Mus musculus, UniProt P01904+P01915).
T1 sequence (P01904 26-255): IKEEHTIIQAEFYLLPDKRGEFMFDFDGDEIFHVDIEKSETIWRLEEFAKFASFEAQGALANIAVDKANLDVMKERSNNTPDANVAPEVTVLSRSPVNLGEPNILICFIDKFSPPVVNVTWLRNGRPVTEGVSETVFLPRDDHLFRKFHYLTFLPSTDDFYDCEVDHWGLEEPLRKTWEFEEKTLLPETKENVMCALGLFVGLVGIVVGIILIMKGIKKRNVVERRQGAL
T1 sequence (P01915 27-264 limits assumed): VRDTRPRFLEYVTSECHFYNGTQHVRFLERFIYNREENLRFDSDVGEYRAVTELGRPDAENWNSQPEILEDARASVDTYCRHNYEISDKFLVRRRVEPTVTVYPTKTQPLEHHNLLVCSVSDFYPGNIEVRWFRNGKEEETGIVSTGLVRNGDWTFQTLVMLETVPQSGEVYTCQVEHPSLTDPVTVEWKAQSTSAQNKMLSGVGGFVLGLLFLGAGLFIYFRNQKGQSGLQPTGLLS
Kind of test: simultaneous assay, E^d allele (A20 APC, G28.C9 T hybridoma, HEL106-116; HT-2 [3H]TdR readout). Format: cell-based. Details: The A20 and CH27 B cell lymphoma lines express H-2^d and H-2^k alleles, respectively; endogenous in cells; host or cells: A20 B cell lymphoma (mitomycin C-treated or paraformaldehyde-fixed). Put shortly:
as §3

Test [4] deals with T1, murine E^d MHC class II allele. Kind of test: AE101 series peptide prepulse assay, E^d allele. The settings on record: Table 35; AE101 series peptide prepulse 64 μM; antigenic peptide 0.3 μM; supernatant dilution 1:4. Format: cell-based. How it is done: as §1, §2
The subject of test [5] is HLA-DR1 molecules. The test is described as follows: release of biotin-labeled hMBP(90-102) from HLA-DR1 without unlabeled antigenic peptide (assay I). The test is classed as binding, human. The settings on record: for release of biotin-labeled hMBP(90-102) from HLA-DR1 without second unlabeled antigenic peptide, in words: Table 36 (compounds tested at 64 μM); for Relative Release: Table 36, AE101 series compound 64 μM, fraction of o.d. of positive control (PBS only = 1.0; negative control = 0.0).

The target of test [6] is T2, HLA-DR1 molecules (Homo sapiens, UniProt P01903+P01911, A100R/D57E/F55L/F60I/F76Y/I96L/L162R/M171V/P40L/Q125E/R42F/V115G/Y59C).
T2 construct: The HLA-DR alpha gene was truncated after Asn^192 to remove transmembranal and cytoplasmic regions from the protein product; A gene coding for the HLA-DR1 beta chain was truncated after position Lys^198, again to delete the transmembranal region; made in house; host or cells: insect cell line printed as HS / H5 (Invitrogen), co-infected with two baculoviruses; concentrated culture supernatant captured on 12CA5 antibody
Kind of test: binding of biotin-labeled hMBP(90-102) to "empty" HLA-DR1 (assay IV). The settings on record: Table 39; AE101 series compound 64 μM; biotin-labeled hMBP(90-102) 50 μM, 37° C., 1 h; no enhancement = 1.

In test [7] the test system is HLA-DR1 molecules. Kind of test: exchange of biotinylated hMBP(90-102) into antigenic peptide-loaded HLA-DR1 (assay III). Format: binding, human. The settings on record: Table 38; HLA-DR1 preloaded with unlabeled hMBP(90-102) 50 μM; exchange with biotin-labeled hMBP(90-102) 50 μM, 37° C., 1 h; fraction of positive control o.d.; no enhancement = 0.08.
For test [8], the target named is soluble HLA-DR1 (HLA-DR alpha truncated after Asn192 with a C-terminal nine amino acid HA epitope tail; HLA-DR1 beta truncated after Lys198), made in Baculovirus-infected insect cells (human). Kind of test: release ELISA as Table 36 (biotin-hMBP(90-102) left on tethered HLA-DR1); AE peptide 64 uM, with unlabeled hMBP(90-102) 250 uM. For orientation: In an ELISA, binding on a coated surface is turned into a signal by an enzyme label.

The target is the same in test [9]. The test is described as follows: release ELISA as Table 36 (biotin-hMBP(90-102) left on tethered HLA-DR1); AE peptide 1 uM, without unlabeled hMBP(90-102).
Test [10] shares this target. Kind of test: release ELISA as Table 36 (biotin-hMBP(90-102) left on tethered HLA-DR1); AE peptide 1 uM, with unlabeled hMBP(90-102) 250 uM.
The target is the same in test [11]. The test is described as follows: release ELISA as Table 36 (biotin-hMBP(90-102) left on tethered HLA-DR1); AE peptide 64 uM, without unlabeled hMBP(90-102).
For test [12] the target is unchanged. Kind of test: exchange ELISA: tethered HLA-DR1 preloaded with unlabeled hMBP(90-102) 50 uM, washed; AE peptide plus biotin-hMBP(90-102) 50 uM, 1 h 37 C; biotin bound as fraction of positive control (overnight loading).
For test [13] the target is unchanged. The test is described as follows: loading ELISA: empty tethered HLA-DR1 with biotin-hMBP(90-102) 50 uM and AE peptide 64 uM, 1 h 37 C; biotin bound read by avidin-HRP.
Test [14] has the same target. The test is described as follows: release ELISA: soluble HLA-DR1 tethered by 12CA5 and preloaded with biotin-hMBP(90-102); AE peptide 64 uM, 1 h 37 C, no unlabeled peptide; biotin still bound read by avidin-HRP (1.0 = PBS control, 0.0 = no DR1; low value = released).

In the case of Ac-LRMKlpk-NH2 [AE172], the “T cell response relative to baseline with PBS-pretreated APC (NONE = 1.0), E^k” value in test [1] is given as 2.1. Further, the “Times Baseline Response, E^k” value came out at 2.8 in test [2] (Table 12, AE peptide 1 μM (fourth value), supernatant 1:4); 4.2 in [2] (Table 12, AE peptide 4 μM (third value), supernatant 1:4); 21.1 in [2] (Table 12, AE peptide 16 μM (second value), supernatant 1:4); 46.2 in test [2] (Table 12, AE peptide 64 μM (first value), supernatant 1:4). For the same molecule, the “Times Baseline Response, E^d” value in test [3] (Table 12, AE peptide 1 μM (fourth value), supernatant 1:2) is 2; in [3] (Table 12, AE peptide 4 μM (third value), supernatant 1:2), 2; in test [3] (Table 12, AE peptide 16 μM (second value), supernatant 1:2) it was 7; in [3] (Table 12, AE peptide 64 μM (first value), supernatant 1:2), 54. In addition, the “T cell response relative to baseline with PBS-pretreated APC (NONE = 1.0), E^d” value in test [4] was found to be 1.1.
Consider YRMKLPKSAKPV [AE107], for which the “Times Baseline Response, E^k” value stood at 0.8 in [2] (Table 1, AE peptide 16 μM (second value), 0.075 μM THMCC82-103, supernatant 1:2) and 1.0 in test [2] (Table 1, AE peptide 64 μM (first value), 0.075 μM THMCC82-103, supernatant 1:2). Moreover, the “release of hMBP(90-102) from HLA-DR1” value in the test on HLA-DR1 molecules [5] (AE peptide at 125 nM, additional experiments) is recorded as “completely release”. In the test on HLA-DR1 molecules [5], the “release of biotin-labeled hMBP(90-102) from HLA-DR1 without second unlabeled antigenic peptide, in words” value is listed as “released”. Further, the “Relative Release” value with HLA-DR1 molecules [5] was −0.07. Besides, in the test with HLA-DR1 molecules [6], the “Relative Enhancement” value came to 2.59. Also, the “Times Baseline Response, E^d” value in [3] (Table 1, AE peptide 16 μM (second value), 0.4 μM HEL106-116, supernatant 1:4) was determined as 4.8; in test [3] (Table 1, AE peptide 64 μM (first value), 0.4 μM HEL106-116, supernatant 1:4), 21.7. Besides, the “Relative Binding” value in the test on HLA-DR1 molecules [7] was 1.04.
With “AE405: comprising residue positions 5 through 12 of AE101 (LPKSAKPV)”, in the test on HLA-DR1 molecules [5], the “release of biotin-labeled hMBP(90-102) from HLA-DR1 without second unlabeled antigenic peptide, in words” value is on record as “sufficient to release antigenic peptide” and the “Relative Release” value came out at 0.11. Moreover, the “Relative Enhancement” value with HLA-DR1 molecules [6] turned out to be 0.43. In the test on HLA-DR1 molecules [7], the “Relative Binding” value was found to be 0.57.

B1: AE206 (peptide)
peptide: Ac-LRLKLPK-NH2
With B1, the Relative Release (fraction of positive control o.d.) in test [8] is -0.29; in test [9] it was 0.58; in test [10] it was 0.03; in [11], 0.08. For the same molecule, the Relative Binding (of biotin-hMBP(90-102) to HLA-DR1) (fraction of positive control o.d.) in [12] is -0.13. Also, in test [13], the Relative Enhancement (of biotin-hMBP(90-102) binding to empty HLA-DR1) (relative to no AE peptide = 1) came to 2.57.

B2: AE235 (peptide)
peptide: Ac-LRMKYPK-NH2
Take B2: the Relative Release (fraction of positive control o.d.) in [8] amounted to 0.6; in [14] it was 0.79; in [9], 1.05; in test [10], 0.48; in test [11], 0.81. For the same molecule, the Relative Binding (of biotin-hMBP(90-102) to HLA-DR1) (fraction of positive control o.d.) in [12] came to 0.15. For the same molecule, the Relative Enhancement (of biotin-hMBP(90-102) binding to empty HLA-DR1) (relative to no AE peptide = 1) in test [13] was found to be 0.61.

B3: AE108 (peptide)
peptide: YRMKLPKSAK
For the molecule B3, the Relative Release (fraction of positive control o.d.) was found to be 0.14 in test [8]; 1.14 in test [14]; 0.52 in [9]; 0 in test [10]; 0.31 in test [11].

B4: AE381 (peptide)
peptide: LRMKLPK
modifications: head-to-tail cyclization: the amino terminal amino group is coupled through an amide linkage to the carboxyl terminal group
In the case of B4, the Relative Release (fraction of positive control o.d.) was -0.19 in test [8], 0.64 in [9], 0.09 in [10] and 0.5 in test [11]. Besides, in test [12], the Relative Binding (of biotin-hMBP(90-102) to HLA-DR1) (fraction of positive control o.d.) was -0.12. Further, the Relative Enhancement (of biotin-hMBP(90-102) binding to empty HLA-DR1) (relative to no AE peptide = 1) in test [13] was 1.84.

B5: AE143 (peptide)
peptide: Ac-YRMKL[Hyp]KSAK-NH2
SMILES: CSCC[C@H](NC(=O)[C@H](CCCNC(=N)N)NC(=O)[C@H](Cc1ccc(O)cc1)NC(C)=O)C(=O)N[C@@H](CCCCN)C(=O)N[C@@H](CC(C)C)C(=O)N1C[C@H](O)C[C@H]1C(=O)N[C@@H](CCCCN)C(=O)N[C@@H](CO)C(=O)N[C@@H](C)C(=O)N[C@@H](CCCCN)C(N)=O
With B5, the Relative Release (fraction of positive control o.d.) came to 0.21 in test [8], 0.51 in test [9], 0.35 in test [10] and 0.58 in test [11].
